Data as given in US5858678, “Apoptosis-regulating proteins” (St. Louis University, dated 1999).

T1: yeast SNF1 protein bait (yeast, UniProt P06782)
T1 sequence: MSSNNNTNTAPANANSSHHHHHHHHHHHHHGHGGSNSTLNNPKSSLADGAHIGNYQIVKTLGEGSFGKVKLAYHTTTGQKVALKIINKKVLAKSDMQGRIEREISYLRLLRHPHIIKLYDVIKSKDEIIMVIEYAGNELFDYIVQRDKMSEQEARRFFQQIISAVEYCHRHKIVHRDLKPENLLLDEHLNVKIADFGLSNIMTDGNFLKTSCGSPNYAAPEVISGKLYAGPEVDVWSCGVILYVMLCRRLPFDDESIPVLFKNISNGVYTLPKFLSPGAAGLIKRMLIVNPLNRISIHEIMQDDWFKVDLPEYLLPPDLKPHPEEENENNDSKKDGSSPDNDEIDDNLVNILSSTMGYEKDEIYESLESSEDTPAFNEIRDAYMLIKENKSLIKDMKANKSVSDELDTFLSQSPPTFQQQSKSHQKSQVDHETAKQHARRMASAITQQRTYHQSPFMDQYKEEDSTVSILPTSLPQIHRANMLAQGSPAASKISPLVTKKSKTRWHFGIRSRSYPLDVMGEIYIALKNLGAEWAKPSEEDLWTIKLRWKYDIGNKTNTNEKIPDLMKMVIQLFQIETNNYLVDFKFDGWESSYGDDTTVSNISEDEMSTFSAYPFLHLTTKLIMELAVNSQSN

B1: Nip2 (19K-interacting protein 2), protein coded by cDNA clone 44, tagged with the GAL4 activation domain (other)
chain: MEGVELKEEWQDEDFPIPLPEDDSIEADILAITGPEDQPGSLEVNGNKVRKKLMAPDISLTLDPSDGSVLSDDLDESGEIDLDGLDTPSENSNEFEWEDDLPKPKTTEVIRKGSITEYTAAEEKEDGRRWRMFRIGEQDHRVDMKAIEPYKKVISHGGYYGDGLNAIVVFAVCFMPESSQPNYRYLMDNLFKYVIGTLELLVAENYMIVYLNGATTRRKMPSLGWLRKCYQQIDRRLRKNLKSLIIVHPSWFIRTLLAVTRPFISSKFSQKIRYVFNLAELAEL
B2: Nip1 (19K-interacting protein 1), protein coded by cDNA clone 22, tagged with the GAL4 activation domain (other)
chain: PQDVHVRICNQEIVKFDLEVKALIQDIRDCSGPLSALTELNTKVKEKFQQLRHRIQDLEQLAKEQDKESEKQLLLQEVENHKKQMLSNQASWRKANLTCKIAIDNLEKAELLQGGDLLRQRKTTKESLAQTSSTITESLMGISRMMAQQVQQSEEAMQSLVTSSRTILDANEEFKSMSGTIQLGRKLITKYNRRELTDKLLIFLALRLFLATVLYIVKKRLFPFL

Key:
yeast SNF1 protein bait = molecular target: T1, yeast SNF1 protein bait; experiment: yeast two-hybrid in strain Y153, X-gal (W = White)
Method: To determine the specificity of the two hybrid interaction, the three clones, 22, 44 and 91, were tested against baits expressing several heterologous proteins (Table 1). Among the various heterologous protein baits used, the adenovirus E3 11.6 kD protein is of particular interest as that protein localizes on the nuclear envelope region and has an internal hydrophobic domain like the E1B 19 kD protein (Scaria et al., 1992).
B = Blue W = White [@]Interactions with all baits except the yeast SNF1 protein were carried out in yeast Strain GGY1::171. Interaction with SNF1 was carried out in yeast strain Y153. *Colonies which appeared on -his, -trp, -leu plates after 6–8 days. Results of X-gal staining are indicated as B, blue; W, white; or ND, not done. The heterologous baits pLAM5 (human lamin) and pAS-SNF1 (yeast SNF1) have been described (Bartel et al., 1993, Durfee et al., 1993). Baits pHIV-1 Rev, pHIV-1 Tat, pHIV-1 Nef and pHTLV-1 Rex expressing the various HIV or HTLV regulating proteins were constructed as described herein and obtained from Cleta D'Sa Eipper and T. Subramanian, St. Louis University Medical Center, St. Louis, MO.

[1] = molecular target: GAL4 DNA binding domain alone (vectors pMA424 or pAS1) (yeast, UniProt P04386); experiment: yeast two-hybrid with the empty GAL4 DNA binding domain vectors
[2] = molecular target: human Bax (two-hybrid partner) (human, UniProt Q07812); experiment: yeast two-hybrid

Binder | binding result (yeast SNF1 protein bait) | binding result [1] | binding result [2]
B1 | no binding | no binding | 
B2 |  | no binding | no binding
